This is an account of results in patent publication US20240141041A1.

This test deals with CD52 (human) (UniProt P31358). Kind of test: cell-based or functional assay.

For CAMPATH (alemtuzumab) (antibody), the depletion of infused CD4CAR T cells in mouse blood, 0.1 mg/kg CAMPATH, 6 h and 48 h is greater than 95%.
